According to patent CN113999301A (JIANGSU XINTRUM PHARMACEUTICALS CO LTD, dated 2022):

Target: 新冠原始假病毒的S蛋白 (FNV-SARS-CoV-2-S) (SARS-CoV-2, UniProt P0DTC2 14-1273)
Assay: cell-based or functional assay

B1: 抗SARS-CoV-2(COVID-19)S蛋白RBD单克隆抗体B15-5-B3 (antibody, V domains shown)
VH: EVKFEESGGGLVQPGGSMKLSCAASGFTFSDAWMDWVRQSPEKGLEWVAEIRNKANNHATYYAESVKGRFTISRDDSKSSVYLQMNSLRAEDTGIYYCTPYDYAYPWFWGQGTLVTVSA
VL: EIVLTQSPTTMAASPGEKITITCSASSSISSHYLHWYQQKPGFSPKLLIYRSYSLASGFPGRFSGSGSGTSFSLSIGTMEAEDVATYYCQQGSSRITPFGGGTKLEIK
假病毒中和效应 EC50 (luciferase, HEK293-ACE2 cells): 0.0369 µg/mL
